Test [1] deals with T1, cynomolgus CD39 (full length, on CHOK1-cynoCD39 cells) (cynomolgus monkey, UniProt A0A7N9DGH8 1-510).
T1 construct: whole, on cells; also called cCD39
T1 sequence: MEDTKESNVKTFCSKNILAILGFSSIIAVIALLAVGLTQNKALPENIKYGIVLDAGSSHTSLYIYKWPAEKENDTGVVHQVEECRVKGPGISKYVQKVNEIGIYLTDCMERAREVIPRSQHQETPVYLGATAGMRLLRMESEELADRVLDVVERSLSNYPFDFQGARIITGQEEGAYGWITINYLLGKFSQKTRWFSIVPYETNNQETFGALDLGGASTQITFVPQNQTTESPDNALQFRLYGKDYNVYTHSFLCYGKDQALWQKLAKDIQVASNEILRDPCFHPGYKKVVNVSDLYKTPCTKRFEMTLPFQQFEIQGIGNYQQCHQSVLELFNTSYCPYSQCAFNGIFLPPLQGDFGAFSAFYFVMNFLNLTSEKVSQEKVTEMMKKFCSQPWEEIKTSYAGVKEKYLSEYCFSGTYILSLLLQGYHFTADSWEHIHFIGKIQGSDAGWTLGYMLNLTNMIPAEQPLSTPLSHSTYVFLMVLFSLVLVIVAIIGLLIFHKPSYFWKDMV
The test can be described thus: FACS, CHOK1-cynoCD39 cells. An excerpt:
(§1) FACS were used to determine binding of the antibodies to cell lines expressing CD39 naturally (SK-MEL-28) or recombinantly (CHOK1-hCD39, CHOK1-cynoCD39, and CHOK1-mCD39), or with cells lacking CD39 expression (CHOK1-blank) as a negative control.
(§2) CHOK1-hCD39, CHOK1-cCD39, CHOK1-mCD39 and CHOK1-blank cells were maintained in culture medium according to ATCC procedure. Cells were collected and re-suspended in blocking buffer at a density of 3×10⁶ cells/ml. Cells were transferred to 96 well FACS plates at 100 μl/well (3×10⁵ cells/well), the plates were centrifuged and washed twice with FACS buffer (PBS, 1% FBS, 0.05% Tween-20). 4-folds serial dilution of anti-CD39 antibodies were prepared in FACS buffer starting from 30 μg/ml. Reference antibody 9-8B and mouse/human control IgG were used as positive and negative controls, respectively. Cells were re-suspended in 100 μL/well diluted antibodies, and the plates were incubated at 4° C. for 60 min. […] The plates were washed with FACS buffer, and cells were re-suspended in 100 μL/well of PBS. Cells were then analyzed with FACSVerse™ and mean fluorescence intensity were determined. Full binding curves were generated on the CD39 expressing cells by testing a range of antibody concentrations. Apparent affinity was determined for each antibody using Prism software.
A general note: In flow cytometry, cells or beads pass a laser one at a time.

For test [2], the target named is T2, mouse CD39 (full length, on CHOK1-mCD39 cells) (mouse, UniProt P55772 1-510).
T2 construct: whole, on cells
T2 sequence (looked up): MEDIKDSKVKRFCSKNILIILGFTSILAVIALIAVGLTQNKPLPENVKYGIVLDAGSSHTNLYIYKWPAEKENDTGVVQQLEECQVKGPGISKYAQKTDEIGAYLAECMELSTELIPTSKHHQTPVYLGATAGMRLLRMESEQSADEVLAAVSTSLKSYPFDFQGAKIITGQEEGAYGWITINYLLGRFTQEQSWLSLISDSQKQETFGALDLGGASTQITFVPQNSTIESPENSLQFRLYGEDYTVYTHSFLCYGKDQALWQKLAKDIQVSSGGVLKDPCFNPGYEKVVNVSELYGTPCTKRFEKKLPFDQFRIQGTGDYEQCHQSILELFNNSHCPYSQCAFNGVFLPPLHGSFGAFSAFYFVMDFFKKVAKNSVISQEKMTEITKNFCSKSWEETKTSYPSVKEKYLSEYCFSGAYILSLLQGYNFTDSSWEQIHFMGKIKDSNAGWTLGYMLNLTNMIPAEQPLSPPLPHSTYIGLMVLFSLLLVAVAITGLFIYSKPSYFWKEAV
The test can be described thus: FACS, CHOK1-mCD39 cells.
Source text: as §1, §2

In test [3] the target is T3, human CD39 (full length, on cells) (human, UniProt P49961 1-510).
T3 sequence: T1 sequence with I47V, Y94F, I221V, T230I, V329I, N368K, S391A, V489F, I490T
The test can be described thus: cell-based or functional assay.

For test [4], the target named is T3, human CD39 (full length, on cells). Briefly: FACS, SK-MEL-28 cells. The protocol:
as §1
(§3) Similarly, human CD39 expressing cells SK-MEL-5, SK-MEL-28 or MOLP-8, were incubated with a gradient concentration of anti-CD39 antibodies for 30 minutes at 4° C. Cells were washed 3 times using FACS buffer and next incubated with fluorescence labelled secondary antibody (goat-anti-mouse IgG or goat anti-human IgG) for 30 minutes at 4° C. Cells were washed 3 times and then re-suspended in FACS buffer and analyzed by flow cytometry analysis on BD Celesta. Data plotted and analyzed using GraphPad Prism 8.02.

The target is the same in test [5]. Briefly: FACS, CHOK1-hCD39 cells.
Source text: as §1, §2

Test [6] has the same target. Briefly: FACS, MOLP-8 cells. The protocol:
as §3
(§4) The binding affinity of the humanized antibodies for c14 was determined by FACS using MOLP-8 cells expressing human CD39, using similar methods as described in Example 3.2.

The target is the same in test [7]. The test can be described thus: FACS, MOLP-8 cells. The protocol: as §3
The binding affinity of the humanized antibodies for c23 was determined by FACS, using similar methods as described in Example 3.2. The c23 humanized antibody clones showing good binding affinity are listed in below Table 19 and Table 20, and also shown in FIGS. 7A, 7B and FIG. 8. EC₅₀ is the concentration of the indicated antibodies to reach 50% of the signal in this assay.
This is another data set of the same source.

Test [8] shares this target. Briefly: cell-based or functional assay. The source holds these as a separate data set.
Test [9] shares this target. Briefly: FACS on MOLP-8 cells, MFI. The procedure: as §3, §4

The source of these data is US20210388105A1 (ELPISCIENCE SUZHOU BIOPHARMA, published 2021).

Changes are numbered by the printed parent chain.

B1: mAb35 (antibody, V domains shown)
VH: EVRLQQSGAELVKPGASVKLSCTASGFNIEDTYVHWMKQRPEQGLEWIGRIDPAIDNSKYDPKFQGKATITAVSSSNTAYLQLSSLTSEDTAVYYCALYDGYNVYAMDYWGQGTSVTVSS
VL: DIVMTQAAFSNPVTLGTSASISCRSSKNLLHSNGITYLYWYLQRPGQSPQLLIYRASTLASGVPNRFSGSESGTDFTLRISRVEAEDVGVYYCAQLLELPHTFGGGTKLEIK
notes: mouse hybridoma antibody
For B1, the EC50 (as a rule, the concentration that produces a half-maximal response) amounted to 5.3 nM in [1], 1.8 nM in test [4] and 5.2 nM in test [5]. Further, the binding result in test [2] is reported as “no binding (tested: 30 µg/ml highest concentration)”. In addition, the “SK-MEL-28 cell based ATPase inhibition % at 10 nM” value in test [3] was determined as 56%.

B2: c14 (antibody, V domains shown)
VH: EVKLEESGGGLVQPGGSMKLSCVASGFTFSKYWMNWVRQSPEKGLEWVAEIRLKSNKYGTHYAESVKGRFTISRDDSKNNVYLQMNNLRPEDTGIYYCTTQLDLYWFFDVWGAGTTVTVSS
VL: DIVMTQSPAILSVTPGDRVSLSCRASQSISDYLHWYQQKSHESPRLLIKYASQSISGIPSRFSGSGSGSNFTLSINSVEPEDVGVYFCQNGHSLPLTFGAGTKLELR
notes: variable regions of mAb14 on human IgG constant regions; also called chimeric antibody c14
With B2, the EC50 in [6] was determined as 17.5 nM.

B3: hu23.203 (antibody, V domains shown)
VH: QVQLVQSGAEVKKPGASVKVSCKASGYTLKDTFLHWVRQAPGQRLEWMGRIDPANGNIKYDPKFQGRVTLTADTSSNTAYMELSSLRSEDTAVYYCANSPYYYGSGYRIFDVWGQGTLVTVSS
VL: EIVLTQSPATLTLSPGERATLSCSAFSSVNYMHWYQQKPGQAPRLLIYTTSNLASGIPARFSGSGSGTDYTLTISSLEPEDFAVYYCQQRSTYPFTFGQGTKLEIK
notes: humanized c23 by yeast display
B3 came in with an EC50 in test [7] of 0.429 nM. Moreover, in test [8], the “ATPase inhibition IC50 on SK-MEL-28 cells” value amounted to 0.32 nM.

B4: hu23.207 (antibody, V domains shown)
VH: B3 VH with Q1E, R50K
VL: B3 VL with T12S, A42S
notes: as for B3
In test [7], B4 showed a concentration for a half-maximal effect (EC50) of 2.25 nM.

B5: hu23.211 (antibody, V domains shown)
VH: B3 VH with Q1E, L70I
VL: B3 VL with T12S
notes: as for B3
B5 gave a 50% effective concentration (EC50) in test [7] of 1.56 nM. In addition, the “ATPase inhibition IC50 on SK-MEL-28 cells” value in test [8] was 0.386 nM.

B6: hu14.H2L2 (antibody, V domains shown)
VH: EVQLVESGGGLVKPGGSLRLSCAASGFTFSKYWMNWVRQSPGKGLEWVGEIRLKSNKYGTHYAESVKGRFTISRDDSKNTLYLQMNSLKTEDTAVYYCTTQLDLYWFFDVWGQGTTVTVSS
VL: EIVLTQSPATLSLSPGERATLSCRASQSISDYLHWYQQKPGQSPRLLIYYASQSISGIPARFSGSGSGTDFTLTISSLEPEDFAVYFCQNGHSLPLTFGGGTKLEIK
notes: humanized c14
In the case of B6, in test [6], the concentration giving a half-maximal response (EC50) amounted to 6.91 nM.

B7: hu14.H3L1 (antibody, V domains shown)
VH: B6 VH with G49A, L81V
VL: B6 VL with S43A, F87Y
notes: humanized c14
Regarding B7, the response in test [6] was half-maximal at 5.95 nM (EC50).

B8: hu14.H4L4 (antibody, V domains shown)
VH: B6 VH with L18M, G49A, L81V
VL: B6 VL with L4M, L13V, A19V, L78V
notes: humanized c14
In turn, B8 showed a half-maximal effective concentration (EC50) in test [6] of 5.46 nM.

B9: hu14.H1L4 (antibody, V domains shown)
VH: B6 VH with S40A
VL: B6 VL with L4M, L13V, A19V, L78V
notes: humanized c14
B9: the binding result in test [9] was “binds”.

B10: hu14.H2L4 (antibody, V domains shown)
VH: B6 VH
VL: B6 VL with L4M, L13V, A19V, L78V
notes: humanized c14
On to B10, for which, in [9], the binding result is given as “binds”.

B11: hu14.H1L3 (antibody, V domains shown)
VH: B6 VH with S40A
VL: B6 VL with L13V, L78V
notes: humanized c14
B11: the binding result in test [9] is reported as “binds”.

B12: hu14.H3L2 (antibody, V domains shown)
VH: B6 VH with G49A, L81V
VL: B6 VL
notes: humanized c14
On to B12, for which the binding result in test [9] is given as “binds”.

B13: hu14.H3L3 (antibody, V domains shown)
VH: B6 VH with G49A, L81V
VL: B6 VL with L13V, L78V
notes: humanized c14
Molecule B13 came in with an EC50 in [6] of 6.09 nM.

B14: hu14.H2L1 (antibody, V domains shown)
VH: B6 VH
VL: B6 VL with S43A, F87Y
notes: humanized c14
B14: the binding result in [9] is “binds”.

B15: hu14.H3L4 (antibody, V domains shown)
VH: B6 VH with G49A, L81V
VL: B6 VL with L4M, L13V, A19V, L78V
notes: humanized c14
As to B15, the midpoint of the response in test [6], the EC50, lay at 6.05 nM.

B16: hu14.H4L2 (antibody, V domains shown)
VH: B6 VH with L18M, G49A, L81V
VL: B6 VL
notes: humanized c14
For B16, the binding result in test [9] is reported as “binds”.

B17: hu14.H2L3 (antibody, V domains shown)
VH: B6 VH
VL: B6 VL with L13V, L78V
notes: humanized c14
With B17, in test [9], the binding result is recorded as “binds”.
